Data on one molecule can be found in patent US20220289850 (published 2022).

This assay has as its target T1, mouse integrin avb8 (mouse).
T1 chain 1: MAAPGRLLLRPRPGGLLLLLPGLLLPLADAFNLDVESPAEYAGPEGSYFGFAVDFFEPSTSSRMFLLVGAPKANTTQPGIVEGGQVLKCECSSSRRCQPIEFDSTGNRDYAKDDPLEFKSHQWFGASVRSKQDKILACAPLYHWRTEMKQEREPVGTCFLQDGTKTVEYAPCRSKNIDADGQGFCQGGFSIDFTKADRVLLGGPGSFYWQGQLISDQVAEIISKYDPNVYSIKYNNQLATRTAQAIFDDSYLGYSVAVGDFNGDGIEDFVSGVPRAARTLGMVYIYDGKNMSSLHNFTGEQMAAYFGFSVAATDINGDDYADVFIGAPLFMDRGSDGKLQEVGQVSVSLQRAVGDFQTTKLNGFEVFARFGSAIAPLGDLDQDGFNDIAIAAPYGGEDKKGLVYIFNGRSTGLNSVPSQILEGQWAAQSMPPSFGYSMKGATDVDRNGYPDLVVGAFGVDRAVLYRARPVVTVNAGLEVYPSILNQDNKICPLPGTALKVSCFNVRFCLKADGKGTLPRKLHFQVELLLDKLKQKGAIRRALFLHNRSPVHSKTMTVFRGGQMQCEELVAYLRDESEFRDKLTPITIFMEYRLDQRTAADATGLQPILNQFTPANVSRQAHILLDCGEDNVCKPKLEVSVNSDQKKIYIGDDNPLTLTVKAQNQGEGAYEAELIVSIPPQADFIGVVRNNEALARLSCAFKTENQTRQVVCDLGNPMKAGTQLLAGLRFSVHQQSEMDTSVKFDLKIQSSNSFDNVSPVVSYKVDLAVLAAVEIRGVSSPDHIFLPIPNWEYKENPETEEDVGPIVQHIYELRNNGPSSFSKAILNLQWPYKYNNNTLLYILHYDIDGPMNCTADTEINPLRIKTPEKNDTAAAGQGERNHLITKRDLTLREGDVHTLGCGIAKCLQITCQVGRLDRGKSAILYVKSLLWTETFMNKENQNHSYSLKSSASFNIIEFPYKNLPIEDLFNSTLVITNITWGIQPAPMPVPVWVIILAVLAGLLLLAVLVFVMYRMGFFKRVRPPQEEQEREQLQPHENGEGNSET
T1 chain 2: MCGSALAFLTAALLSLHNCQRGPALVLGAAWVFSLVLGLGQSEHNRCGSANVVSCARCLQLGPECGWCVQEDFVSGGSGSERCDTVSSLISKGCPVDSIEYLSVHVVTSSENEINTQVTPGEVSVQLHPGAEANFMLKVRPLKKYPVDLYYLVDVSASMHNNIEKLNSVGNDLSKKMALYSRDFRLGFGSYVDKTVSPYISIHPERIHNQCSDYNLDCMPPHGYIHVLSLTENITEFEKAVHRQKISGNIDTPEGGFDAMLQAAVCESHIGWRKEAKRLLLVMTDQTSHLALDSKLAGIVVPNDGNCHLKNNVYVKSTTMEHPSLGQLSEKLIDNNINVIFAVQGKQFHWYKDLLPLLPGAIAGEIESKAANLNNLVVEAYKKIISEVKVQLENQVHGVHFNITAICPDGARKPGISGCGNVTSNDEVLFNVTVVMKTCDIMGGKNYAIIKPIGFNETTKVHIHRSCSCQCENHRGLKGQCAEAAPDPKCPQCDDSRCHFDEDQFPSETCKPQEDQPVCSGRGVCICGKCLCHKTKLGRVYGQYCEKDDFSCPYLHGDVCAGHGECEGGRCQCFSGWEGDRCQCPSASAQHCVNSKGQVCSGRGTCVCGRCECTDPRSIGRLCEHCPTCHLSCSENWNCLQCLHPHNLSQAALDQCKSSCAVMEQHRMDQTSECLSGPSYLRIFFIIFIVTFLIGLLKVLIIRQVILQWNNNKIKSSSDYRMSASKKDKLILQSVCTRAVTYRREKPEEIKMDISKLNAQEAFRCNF
Briefly: FACS C8-S cells.

B1: ADWA11 2.4 IgG (antibody)
chain 1: EVQLVESGGGLVQPGGSLRLSCAASGFNIKDYYMNWVRQAPGKGLEWVGWIDPDQGNTIYEPKFQGRFTISADTSKNSAYLQMNSLRAEDTAVYYCARRLLMDYWGQGTLVTVSSASTKGPSVFPLAPSSKSTSGGTAALGCLVKDYFPEPVTVSWNSGALTSGVHTFPAVLQSSGLYSLSSVVTVPSSSLGTQTYICNVNHKPSNTKVDKKVEPKSCDKTHTCPPCPAPEAAGAPSVFLFPPKPKDTLMISRTPEVTCVVVDVSHEDPEVKFNWYVDGVEVHNAKTKPREEQYNSTYRVVSVLTVLHQDWLNGKEYKCKVSNKALPAPIEKTISKAKGQPREPQVYTLPPSREEMTKNQVSLTCLVKGFYPSDIAVEWESNGQPENNYKTTPPVLDSDGSFFLYSKLTVDKSRWQQGNVFSCSVMHEALHNHYTQKSLSLSPGK
chain 2: DIQMTQSPSSLSASVGDRVTITCRSTKSLSHFNGNTYLFWYQQKPGKAPKRLIYYMSSLASGVPSRFSGSGSGTDFTLTISSLQPEDFATYYCQQSLEYPFTFGGGTKVEIKRTVAAPSVFIFPPSDEQLKSGTASVVCLLNNFYPREAKVQWKVDNALQSGNSQESVTEQDSKDSTYSLSSTLTLSKADYEKHKVYACEVTHQGLSSPVTKSFNRGEC
Usually EC50 stands for the concentration needed to bring the measured effect to its halfway point. A low value points to higher potency in that assay. B1 displayed an EC50 of 0.145 nM.
